Molecular target: the molecule itself
Test: co-sedimentation; in vitro assembly of FimA monomers to pilus rods: 50 μM FimA monomer in 20 mM acetic acid-NaOH pH 5.0, 150 mM NaCl, 7 days; rods pelleted at 186'000 x g, 10 min, 4°C

B1: Mature FimA without its natural signal sequence (159 residues), refolded FimA monomer (natural protein)
chain: AATTVNGGTVHFKGEVVNAACAVDAGSVDQTVQLGQVRTASLAQEGATSSAVGFNIQLNDCDTNVASKAAVAFLGTAIDAGHTNVLALQSSAAGSATNVGVQILDRTGAALTLDGATFSSETTLNNGTNTIPFQARYFATGAATPGAANADATFKVQYQ
notes: the N-terminal methionine added for cytoplasmic expression was cleaved off quantitatively (measured 15826.0 Da). numbers count on: the mature protein; also called pili assembled in vitro
- binding result: binds
